Reference: patent US20130344592A1 (University of Pennsylvania, published 2013)
Positions of bridges follow the written chain, without caps; N, C: chain ends. No end group written: not given here.

T1: fH19-20 (human, UniProt P08603 1107-1231)
T1 construct: domain: SCR19-20; also called factor H SCR19-20; C-terminal two SCR of factor H
T1 sequence (looked up): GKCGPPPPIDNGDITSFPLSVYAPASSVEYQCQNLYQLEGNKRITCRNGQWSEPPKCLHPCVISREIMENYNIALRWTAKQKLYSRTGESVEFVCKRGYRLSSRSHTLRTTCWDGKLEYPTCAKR


Experiments:
[1] = molecular target: T1, fH19-20; assay: monoclonal phage ELISA on coated fragment
Procedure: (§1) Microtiter wells were coated overnight with either factor H or BSA at 5 μg/mL in PBS at 4° C., and saturated with 5% non-fat milk in PBST for 1 h. Completely separated individual phage plaques from the third round of screening were picked and amplified. Phage particles of each amplified individual phage plaque were added to both factor H- and BSA-coated wells in parallel and allowed to bind at RT for 1 h. After six washes with PBST, bound phages were detected with HRP-conjugated anti-M13 monoclonal antibody (GE Healthcare), using ABTS (Roche) for color development. Clones that bound to factor H but not to BSA were considered positive; single-stranded DNA from positive clones was prepared using an M13 kit (Qiagen, Valencia, Calif.) and sequenced by the DNA sequencing facility of the University of Pennsylvania.
(§2) To localize the binding sites on factor H of the positive clones, we further tested each clone by monoclonal phage ELISA for binding to factor H and its N- and C-terminal fragments, i.e. fH1-4 and fH19-20.

[2] = molecular target: T2, BSA (UniProt P02769 25-607); assay: monoclonal phage ELISA, BSA coated at 5 µg/mL
T2 construct: Only printed as 'BSA'
Procedure: as §1

[3] = molecular target: T3, Human factor H (human, UniProt P08603 19-1231); assay: monoclonal phage ELISA on coated factor H
T3 construct: mature; Plasma-derived protein; also called fH
Procedure: as §1

[4] = molecular target: T4, factor H SCR 1-4 (fH1-4) (human, UniProt P08603 19-264); assay: monoclonal phage ELISA
T4 construct: domain: SCR 1-4; also called N-terminal fragment of factor H; regulatory fH1-4 fragment
Procedure: as §1, §2

[5] = molecular target: T1, fH19-20; assay: monoclonal phage ELISA
Procedure: as §1, §2

[6] = molecular target: T3, Human factor H; assay: peptide-phage competition ELISA on coated factor H
Procedure: (§3) Two approaches were used to evaluate the binding of synthetic peptides to factor H. First, we used peptide-phage competition assays, in which serially diluted synthetic peptide was added to its parent phage at the step of phage binding to coated factor H. The rest of the steps were performed as described above for monoclonal phage ELISA. Second, ELISA experiments were used to evaluate the binding of factor H to the immobilized peptide. Microtiter plates were coated with streptavidin (New England Biolabs) at 10 μg/ml in PBS at 4° C. overnight, and saturated with 2% BSA in PBS. After washing, either the biotinylated 5C6 peptide or a biotinylated control peptide (linear compstatin; […]) was added at 10 μg/ml and allowed to bind at RT for 30 min. The wells were washed again, and factor H serially diluted in PBS, starting with 2.5 μg/ml, was added. After 1 h of binding, the plates were washed, and bound factor H was detected with goat anti-human factor H polyclonal antibody (Quidel, San Diego, Calif.), followed by HRP-conjugated rabbit anti-goat IgG (Bio-Rad). […]

[7] = molecular target: T4, factor H SCR 1-4 (fH1-4); assay: SPR, biotinylated peptide captured on streptavidin chip, fragment injected
Procedure: The binding of factor H with surface-bound 5C6 peptide was further characterized using surface plasmon resonance (SPR) on a ProteOn XPR36 instrument (Bio-Rad Inc., Hercules, Calif.) using PBST (10 mM sodium phosphate, 150 mM NaCl, 0.005% Tween 20) as running buffer. Streptavidin (50 μg/ml in 10 mM sodium acetate pH 5.0) was immobilized on a GLC sensor chip at 30° C. using amine coupling. The biotinylated 5C6 peptide and a biotinylated control peptide (linear compstatin; see above) were captured on separate streptavidin-coated channels to a density of ˜200 resonance units (RU). Purified factor H (Complement Technologies, Tyler, Tex.) or recombinant fragments fH1-4 and fH19-20 were injected at a concentration of 100 nM for 2 rain at a flow rate of 25 μl/min with a dissociation phase of 6 min. A single injection of 2 M NaCl for 30 s was used to regenerate the surface between injections. […]
The binding activity and specificity was further validated using SPR assays, by simultaneously injecting factor H or its fragments over biotinylated 5C6 peptide and the control peptide, which were captured on a streptavidin-coated sensor chip. […] While a significant SPR response could also be detected for the fH19-20 fragment, this interaction was not stable and the signal rapidly returned to baseline. […]

[8] = molecular target: T3, Human factor H; assay: ELISA, biotinylated peptide on coated streptavidin, purified factor H detected by polyclonal antibody
Procedure: as §3, with “The wells were washed again, and factor H serially diluted in PBS, starting with 2.5 μg/ml, was added.” left out
(§4) The direct binding between the peptide and factor H was initially evaluated in an ELISA experiment, in which the biotinylated 5C6 peptide and a biotinylated control peptide of similar size and charge (i.e., linear compstatin) were captured by coated streptavidin and the binding of purified factor H was detected by polyclonal antibodies.

[9] = molecular target: T4, factor H SCR 1-4 (fH1-4); assay: monoclonal phage ELISA on coated fragment
Procedure: as §1, §2

[10] = molecular target: T3, Human factor H; assay: ELISA, biotinylated peptide on coated streptavidin, factor H detected by polyclonal antibody
Procedure: as §3, with “The wells were washed again, and factor H serially diluted in PBS, starting with 2.5 μg/ml, was added.” left out
as §4

T4 sequence (P08603 19-264 limits assumed): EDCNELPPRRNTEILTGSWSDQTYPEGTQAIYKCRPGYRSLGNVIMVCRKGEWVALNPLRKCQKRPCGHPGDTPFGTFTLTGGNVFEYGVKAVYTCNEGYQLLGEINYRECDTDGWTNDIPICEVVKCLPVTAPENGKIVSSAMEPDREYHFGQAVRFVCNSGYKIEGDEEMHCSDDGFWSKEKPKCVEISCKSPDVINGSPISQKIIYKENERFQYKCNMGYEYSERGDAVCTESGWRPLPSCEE
T2 sequence (P02769 25-607 limits assumed): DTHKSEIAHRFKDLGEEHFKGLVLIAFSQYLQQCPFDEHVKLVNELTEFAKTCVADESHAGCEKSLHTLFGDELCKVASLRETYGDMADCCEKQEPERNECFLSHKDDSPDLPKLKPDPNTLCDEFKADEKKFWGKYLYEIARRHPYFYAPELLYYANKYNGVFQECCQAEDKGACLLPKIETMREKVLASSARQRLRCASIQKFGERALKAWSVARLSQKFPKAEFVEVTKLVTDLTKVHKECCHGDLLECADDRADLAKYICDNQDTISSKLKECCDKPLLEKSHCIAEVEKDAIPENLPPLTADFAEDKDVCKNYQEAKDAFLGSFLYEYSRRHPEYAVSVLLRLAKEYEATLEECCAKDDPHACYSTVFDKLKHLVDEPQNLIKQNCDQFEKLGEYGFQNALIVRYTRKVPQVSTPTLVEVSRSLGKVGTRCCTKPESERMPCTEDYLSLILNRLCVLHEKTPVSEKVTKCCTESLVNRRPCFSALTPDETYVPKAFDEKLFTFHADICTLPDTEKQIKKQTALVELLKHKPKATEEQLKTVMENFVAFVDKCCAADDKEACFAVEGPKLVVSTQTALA

Row | Binder | binding result [2] | binding result [3] | binding result [4] | binding result [5] | other results
1 | ASSGMCFTKKTVLC (not shown: not specified for the library) [Phage clone 4A1 (class 1, library ANL4)] | no binding | binds |  |  | binding result [1]: binds
2 | ASSNVCSYSYWCAH (not shown: not specified for the library) [Phage clone 5G11 (class 3, library ANL5)] | no binding | binds | no binding | no binding | 
3 | ASSSRCTYDHWCSH-NH2 (disulfide 6-12; N-terminus assumed; SMILES C[C@H](N)C(=O)N[C@@H](CO)C(=O)N[C@@H](CO)C(=O)N[C@@H](CO)C(=O)N[C@@H](CCCNC(=N)N)C(=O)N[C@H]1CSSC[C@@H](C(=O)N[C@@H](CO)C(=O)N[C@@H](Cc2c[nH]cn2)C(N)=O)NC(=O)[C@H](Cc2c[nH]c3ccccc23)NC(=O)[C@H](Cc2c[nH]cn2)NC(=O)[C@H](CC(=O)O)NC(=O)[C@H](Cc2ccc(O)cc2)NC(=O)[C@H]([C@@H](C)O)NC1=O, also called peptide 5C6) [Synthetic 5C6 peptide] |  |  |  |  | binding result [6]: binds
4 | ASSSRCTYDHWCSH-{K(biotin)-NH2} (disulfide 6-12, Captured on coated streptavidin (polystyrene wells or SPR chips); also called immobilized 5C6 peptide; not shown: C-terminal lysine carrying biotin) [Biotinylated 5C6 peptide] |  |  |  |  | binding result [7]: no binding (tested: 100 nM); binding result [8]: binds
5 | ASSYDVGYSHDCRF (not shown: not specified for the library) [Phage clone 5-2C6 (class 2, library ANL5)] | no binding | binds |  |  | binding result [9]: binds
6 | ASSFKCDYSHWCLH (not shown: not specified for the library) [Phage clone 5E10 (class 3, library ANL5)] | no binding | binds | no binding | no binding | 
7 | ASSCMYSYWCTH (not shown: not specified for the library) [Phage clone 5-2B2 (class 3, library ANL5)] | no binding | binds | no binding | no binding | 
8 | IAVVQDWGHHRAT (also: biotinylated, site not given here, captured on coated streptavidin; also called LC; negative control peptide) [Biotinylated control peptide (linear compstatin, Cys-to-Ala double mutant)] |  |  |  |  | binding result [10]: no binding
9 | ASSSRCTYDHWCSH (also called parent phage of the 5C6 peptide; not shown: not specified for the library) [Phage clone 5C6 (class 3, library ANL5)] | no binding | binds | no binding |  | 
10 | ASPSWCSYSHWCRH (not shown: not specified for the library) [Phage clone 5D1 (class 3, library ANL5)] | no binding | binds | no binding | no binding | 
